Here are results for 2 molecules from US11491206B1, “Compositions and methods for the treatment of trail-resistant cancer” (Duke University, priority 2018, dated 2022).

For data set [1], the system named is HCT116, HCT15, Colo205, DLD-1, and Lovo. Nature of the data set: Single-agent cytotoxicity (MTT) in TRAIL-sensitive CRC cell lines. It counts as cell-based, human. As for the experimental part: (§1) For single-agent cytotoxicity evaluation, DRA and ELP-DRA fusion proteins were tested in vitro using a colorimetric formazan assay (MTT) as follows. […] The cells were then treated with 10 μL additional media containing a serial dilution of the drug(s) of interest. All treatments were done in triplicate. […] The inhibition of cell viability was determined using measurements of the absorbance at 490 nm, which is the absorbance maximum of the formazan product. The dose-response curves were generated by plotting inhibition as a function of compound concentration.

Data set [2] has as its system RKO cells. Nature of the data set: Single-agent cytotoxicity (MTT) in RKO. In kind it is cell-based, human. On the procedure: as §1
The test system of the next data set is HT29 cells. Nature of the data set: Single-agent cytotoxicity (MTT) in HT29. In kind it is cell-based, human. As for the experimental part:
as §1

For a further data set, the system named is CRC12x. Nature of the data set: Single-agent cytotoxicity in patient-derived CRC12x. It counts as cell-based, human. As for the experimental part: as §1
The next data set relates to CRC119. Nature of the data set: Single-agent cytotoxicity in patient-derived CRC119. It counts as cell-based, human. The conditions noted are these: CRC119s. On the procedure: as §1
For a further data set, the system named is CRC247. Nature of the data set: Single-agent cytotoxicity in patient-derived CRC247. It counts as cell-based, human. On the procedure:
as §1

In data set [3] the test system is RKO cells. Nature of the data set: Flow cytometry Annexin V apoptosis quantification in RKO. In kind it is cell-based, human. As to conditions: for % positive Annexin V+: single replicate, listed as SA. On the procedure: Flow Cytometry for Annexin-V Apoptosis Quantification. Cells were seeded in six-well plates overnight. The next day, cells were treated with the indicated amount of drug(s) or vehicle control (DMSO). Incubation time was 15 h for etoposide or 48 h for DRA alone, or DRA with sensitizers. To prepare samples for flow cytometry, each well of cells was washed twice with ice-cold PBS and resuspended in 1× annexin V binding buffer (10 mM HEPES, 140 mM NaCl, 2.5 mM CaCl2, pH 7.4) BD Biosciences). Allophycocyanin (APC)-conjugated Annexin V was used to measure surface exposure of phosphatidylserine and 7-aminoactinomycin D (7-AAD) was used as a viability probe (BD Biosciences). Cell samples were analyzed at 20,000 counts/sample using BD FACSVantage SE.

In another data set the test system is T84. Nature of the data set: Single-agent cytotoxicity (MTT) in T84. In kind it is cell-based, human. On the procedure: as §1
The conditions of data set [4]: in vivo; cited from earlier work.
The next data set addresses mouse death receptor (Mus musculus, UniProt Q9QZM4). As to conditions: previous studies; cited from earlier work.

Where “and” joins values, the source holds several entries; their conditions need not be identical. Identical values can stand only once.

mouse death receptor, sequence (Q9QZM4 53-381): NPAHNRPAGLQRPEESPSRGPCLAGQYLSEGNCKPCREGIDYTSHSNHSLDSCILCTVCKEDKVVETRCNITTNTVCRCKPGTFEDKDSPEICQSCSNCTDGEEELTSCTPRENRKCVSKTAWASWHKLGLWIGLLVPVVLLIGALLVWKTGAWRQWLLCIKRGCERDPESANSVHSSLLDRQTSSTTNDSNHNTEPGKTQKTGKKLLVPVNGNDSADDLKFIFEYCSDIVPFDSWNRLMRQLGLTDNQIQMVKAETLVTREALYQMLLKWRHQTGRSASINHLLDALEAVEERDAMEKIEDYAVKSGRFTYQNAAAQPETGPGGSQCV

B1: DRA monomer: single Tn3 type III fibronectin domain engineered to bind DR5 (protein)
chain: GAIEVKDVTDTTALITWAKPWVDPPPLWGCELTYGIKDVPGDRTTIDLQQKHTAYSIGNLKPDTEYEVSLICFDPYGMRSKPAKETFTT
Take B1: the “induction of cell death” value in [1] (sensitive cell lines) is recorded as “do not induce cell death”.

B2: DRA: hexameric protein of Tn3 fibronectin type III domains (SEQ ID NO: 1) binding DR5, joined by glycine-serine linkers (protein)
chain: GAIEVKDVTDTTALITWAKPWVDPPPLWGCELTYGIKDVPGDRTTIDLQQKHTAYSIGNLKPDTEYEVSLICFDPYGMRSKPAKETFTTGGGGSGGGGSGGGGSGAIEVKDVTDTTALITWAKPWVDPPPLWGCELTYGIKDVPGDRTTIDLQQKHTAYSIGNLKPDTEYEVSLICFDPYGMRSKPAKETFTTGGGGSGGGGSGGGGSGAIEVKDVTDTTALITWAKPWVDPPPLWGCELTYGIKDVPGDRTTIDLQQKHTAYSIGNLKPDTEYEVSLICFDPYGMRSKPAKETFTTGGGGSGGGGSGGGGSGAIEVKDVTDTTALITWAKPWVDPPPLWGCELTYGIKDVPGDRTTIDLQQKHTAYSIGNLKPDTEYEVSLICFDPYGMRSKPAKETFTTGGGGSGGGGSGGGGSGAIEVKDVTDTTALITWAKPWVDPPPLWGCELTYGIKDVPGDRTTIDLQQKHTAYSIGNLKPDTEYEVSLICFDPYGMRSKPAKETFTTGGGGSGGGGSGGGGSGAIEVKDVTDTTALITWAKPWVDPPPLWGCELTYGIKDVPGDRTTIDLQQKHTAYSIGNLKPDTEYEVSLICFDPYGMRSKPAKETFTTGGGGSGGGGSGGGGSHHHHHHHH
For B2, the “increase in potency of DRA compared to TRAIL (T/D fold, EC50-TRAIL/EC50-DRA)” value in data set [1] (TRAIL-sensitive cell lines) is on record as 70-1700 times. The half-maximal effective concentration (EC50) result in data set [1] (all tested TRAIL-sensitive cell lines) was “picomolar range”; with RKO cells [2], above 100 nM; with CRC12x it was 0.0098 nM; with CRC119 it was 0.0261 nM. The cytotoxicity entry in the data set on HT29 cells was “induces cytotoxicity”; in the data set on CRC247 it was “highly resistant”; with T84, “induces cytotoxicity”. Further, the figures for the “Average % positive Annexin V+” value with RKO cells [3] (0.5 pM SA) and with RKO cells [3] (1 pM SA) were 4.90% and 6.01%, respectively. Moreover, the “% positive Annexin V+” value in the data set with RKO cells [3] (0.5 pM SA) is 5.32% and 5.86% and 3.53%; in the data set on RKO cells [3] (1 pM SA), 6.97% and 5.22% and 5.85%. In [4], the half-life entry is reported as “approximately 36 min”. In the data set with mouse death receptor, the “interaction with mouse death receptor” value is given as “no interaction”.
